{"source": "patent US20230094463A1", "about": "“ANTIBODIES THAT DISRUPT THE INTERACTION OF GAL3 AND INSULIN RECEPTOR OR INTEGRINS AND METHODS OF USE THEREOF” (TrueBinding, Inc., priority 2019, published 2023)", "molecules": {"B1": {"name": "TB001: Gal3-targeted Gal3-INSR blocking anti-Gal3 antibody; IMT001-4 used with human IgG4 isotype control (antibody, V domains shown)", "VH": "QVQLVQSGSELKKPGASVKVSCKASGYTFTNYGMNWVRQAPGQGLKWMGWINTNTGEPTYVEEFTGRFVFSLETSVSTAYLQISSLKAEDTAVYFCAPYDNFFAYWGQGTTVTVSS", "VL": "DIVLTQSPLSLPVTPGEPASISCRSSKSLLYKDGKTYLNWFLQKPGQSPQLLIYLMSTHASGVPDRFSGSGSGTDFTLKISRVEAEDVGVYYCQQLVDYPLTFGGGTKLEIK"}}, "key": {"[1]": {"system": "high-fat diet fed diabetic C57BL6J mice", "assay": "High-fat diet fed mouse model of type II diabetes", "type": "in vivo", "conditions": "HFD-fed mice; for liver steatosis (H&E stained liver sections): 10 mg/kg", "source_text": "To evaluate whether Gal3-INSR blockade by Gal3-targeted antibodies functionally impacted diabetes biology, a mouse model of type II diabetes was employed. Male C57BL6J mice were purchased from Jackson Lab and fed with high fat diet (HFD, 60% kcal from fat, Research Diet, Catalog #12492i) starting from 7-week old for 8 weeks, 10 or 16 weeks. Age-matched male C57BL6J mice fed with standard chow diet were used as control mice. […] Mice were fed with standard chow diet or HFD ad libitum except when fasted as indicated in the experiments. Glucose tolerance test (GTT) and insulin tolerance test (ITT) were done at 15 weeks and 16 weeks old (8 weeks and 9 weeks after HFD), respectively, to confirm the insulin resistant and glucose intolerant phenotype. For GTT, mice were fasted for 6 hours by transferring mice to clean cage with no food or faeces but with drinking water and then injected with 2 g/kg glucose (Sigma) and blood was drawn to measure glucose levels at 0, 15, 30, 60, 90, and 120 minutes after glucose injection. For ITT, mice were fasted for 6 hours, and then injected with 0.75 IU/kg body weight of Humalin-R (Eli Lilly) intraperitoneally. Blood from the tail was measured for glucose content using HemoCue Glucose 201 Analyzer at 0, 15, 30, 45, 60 minutes. Based on area under the curve (AUC) from ITT, HFD fed mice were randomized into two groups: human IgG4 isotype group and IMT001-4 treated group. At 17 weeks of age, mice were given antibody treatments by intraperitoneal injection twice a week for 5 doses before ITT and GTT were done at 19 weeks old and 20 weeks old. Human IgG4 isotype and IMT001-4 were dosed at 10 mg/kg with 100 μl/mouse and BM was dosed at […] with 100 μl/mouse. Treatments continued until the mice were sacked at 21 weeks old. The mice body weight was monitored one week after the mice arrived at the facility. Body weight was measured once a week using a balance. Mouse blood was collected using cardiac puncture. Liver, gastrocnemius muscle, and posterior subcutaneous white adipose fat were collected and weighed.\nTo further evaluate the ability of IMT001-4 to impact the pathological sequalae of diabetes, liver sections from animals treated as in FIGS. 3-5 were examined for signs of fat accumulation, e.g., steatosis. Briefly, liver specimens were fixed in 4% paraformaldehyde for 24 hours, placed in 70% EtOH for 3 days, embedded into paraffin and 10 μm sections were cut and mounted to glass slides and stained with hematoxylin and eosin and visualized on a Revolve microscope at 40× magnification. Images were evaluated by ImageJ to quantitate the extent of steatosis.\nTo further characterize the liver disease observed in histological samples, serum markers of liver dysfunction were evaluated in animals treated as above […]. Briefly, mouse plasma samples were obtained from whole blood sample in lithium heparin collection tubes. 100 μl of serum was dispensed into the rotor of a VetScan VS2 Blood Chemistry Analyzer (Abaxis) through the sample port. ALT levels were determined as per the manufacturer's specification. […] Accordingly, the Gal3-targeted Gal3-INSR blocking antibody, IMT001-4, has utility in reducing serum liver enzymes."}, "[2]": {"system": "DSS-induced IBD C57BL/6J mice", "assay": "DSS mouse model of chronic inflammatory bowel disease", "type": "in vivo", "conditions": "3% DSS mice, 10 mg/kg or 1 mg/kg", "description": "A mouse model of chronic inflammatory bowel disease was implemented to study the effect of Gal-3 antibodies. […] Mice were allowed to rest for one week before initiating the treatment.\nMice were randomized into the four treatment groups: no dextran sulfate sodium salt (DSS), 3% DSS in water+PBS, 3% DSS+mTB001 (10 mg/kg), 3% DSS+mTB001 (1 mg/kg). DSS water mixture was given for five consecutive days followed by seven days of normal water for a total of three DSS cycles and two normal water cycles. Body weight, stool consistency, gross bleeding score, and Hemoccult score (Fisher, SK-61130) were monitored daily. At necropsy, blood, colon, jejunum, ileum, duodenum, and spleen were preserved and flash frozen. Plasma Inflammatory cytokines were measured using Multi-spot Assay Systems (MSD) Proinflammatory Panel 1 (mouse) kit (MSD, K15048D). RT-qPCR was performed on frozen colon samples. Briefly, the colon tissue was disrupted using Qiazol lysis buffer (Qiagen, 79306) and the Qiagen Tissue Lyser II (Qiagen, 85300). RNA was extracted using RNeasy mini kit (Qiagen, 74104). cDNA was synthesized with iScript Reverse Transcription Supermix (BioRad, 1708841) at BioRad C1000 touch thermal cycler (BioRad, 1851138). […]"}, "[3]": {"system": "HFD-fed Db/Db (Bks-Db) mice", "assay": "HFD-fed Db/Db mouse model of advanced type II diabetes", "quoted_text": "In order to investigate the effect of therapeutic anti-GAL-3 antibodies on a severe case of type II diabetes, a mouse model using High Fat Diet (HFD)-fed Db/Db mice was implemented. Four-weeks-old male Bks-Db mice (000642) obtained from Jackson lab were fed with 60% kcal HFD (Research Diet, 12492i) for eight weeks. Control animals (male C57BL6/J (000662), Jackson lab) were fed normal chow diet. […] Animals were randomized based on the body composition measured by employing EchoMRI-500™ (EchoMRI). […] Wild type animals were used as a control (Healthy) group. The animals were dosed for twelve weeks. […] The fasting blood glucose was measured as described in Example 15. Briefly, the mice were fasted for 4-6 hours in clean cages with water and no food. Blood from the tail was diluted 2.5 times before using HemoCue Glucose 201 Analyzer and cuvettes (Mercedes Scientific 110706) to measure the blood glucose level."}, "[4]": {"conditions": "10 mg/kg i.p. twice a week, vs isotype control"}}}
{"molecule": "B1", "values": [{"measurement": "weight gain", "setting": "[1]; 10 mg/kg i.p. twice a week, 19 day study", "value": "did not gain any appreciable weight"}, {"measurement": "liver steatosis (H&E stained liver sections)", "setting": "[1]; 10 mg/kg i.p. twice a week", "value": "negligible levels of steatosis"}, {"measurement": "liver steatosis (H&E stained liver sections)", "setting": "[1]; 10 mg/kg i.p. twice a week, listed as IMT001-4 (TB001)", "value": "absence thereof"}, {"measurement": "glucose reduction in response to insulin challenge (insulin tolerance test)", "setting": "[1]; [4]", "value": "glucose clearance indistinguishable from non-diabetic mice fed a normal diet"}, {"measurement": "response to glucose challenge (glucose tolerance test)", "setting": "[1]; [4]", "value": "cleared glucose significantly more rapidly"}, {"measurement": "serum liver enzyme ALT levels", "setting": "[1]; relative to HFD-fed isotype-control treated mice", "value": "significantly decreased"}, {"measurement": "liver steatosis by image quantification (ImageJ)", "setting": "[1]; relative to isotype-control treated animals", "value": "complete reversion of disease state"}, {"measurement": "DSS-induced reduction in the colon length", "setting": "[2]", "value": "restored"}, {"measurement": "DSS-induced inflammation by circulating levels of IFN-gamma", "setting": "[2]; plasma", "value": "reduced DSS-induced inflammation"}, {"measurement": "change in levels of fasting blood glucose", "setting": "[3]; compared to PBS-treated groups", "value": "lack of change"}, {"measurement": "survival", "setting": "[3]; dosed once weekly for twelve weeks", "value": "significantly prolonged survival"}]}
